Reference: US20140315797A1, “Novel N-Terminally Modified Insulin Derivatives” (priority 2010, published 2014)
Starred links: 1 amine or outer side, 2 acyl side, 3 side chain; linkers in the order of their positions; H or OH if unused. Positions of bridges follow the written chain, without caps; N, C: chain ends. Groups on a side chain read outwards from the residue. Chains are numbered I, II in the order given. No end group written: not given here. *: point of attachment. Phe(Nα-CONH2) = NC(=O)N[C@@H](Cc1ccccc1)C(=O)*; C18 diacid = O=C(O)CCCCCCCCCCCCCCCCC(=O)*; NMe2Phe = CN(C)[C@@H](Cc1ccccc1)C(=O)*; γGlu = O=C(O)[C@H](CCC(=O)[*:2])N[*:1]; Hydantoyl = NC(=O)NCC(=O)*; AEEA = NCCOCCOCC(=O)O; Me2Gly = CN(C)CC(=O)*

Assays:
[1] = Chemical stability of insulin analogues formulated in lipid formulations (UPLC purity, SEC HMWP); type: physicochemical; conditions: lipid formulation, 4 weeks, 30° C.
Experimental: Chemical stability of insulin analogues formulated in lipid formulations was assessed according to the protocol described here.
Composition of the formulation: […]
Insulin to be tested (75 μM)
The insulin to be tested (lyophilised from pH 7.5) is dissolved in propylenglycol in the dark for 16 hours. Diglycerol caprylate is added ad the mixture is stirred. Tween 20 is added and the mixture is stirred for 5 minutes. The mixture is gently agitated until it is homogeneous.
Extraction-mix: 1-butanol+0.1% (w/w) Tween80, 0.1M Na2HPO4/NaH2PO4 pH 7.0 • 1. The formulations are allowed to reach room temperature. • 2. To each Eppendorf tube 20 μl of the formulations are added. • 3. Add 490 μl 1-butanol followed by addition of 990 μl of the phosphate buffer. Vortex and incubate at RT for 30 min. • 4. Vortex again and centrifuge at RT at 14000 rpm for 20 min. Analyse the bottom aqueous phase for purity and HMWP formation.
Alternatively another extraction method can be used: • 1. The formulations are allowed to reach room temperature. • 2. To each Eppendorf tube 50 μl of the formulations are added. • 3. Add 950 μl of extraction buffer. Vortex well. Immediately after, load 800 μl (2×400 μl) for purification on the spin column. See spin protocol below. Ion Exchange on Q Spin Columns from Sartorius
(In the following all spin steps are for 5 min at 2000×g.) • 1. Apply 400 μl equilibration buffer to each spin column, and spin. Discard the flow-through. • 2. Apply 2×400 μl of each extracted sample. Spin the column between each application. Discard the flow-through. • 3. Apply 400 μl washing buffer to wash each spin column, and spin. Discard the wash. • 4. Apply 400 μl elution buffer to each spin column, and spin. Analyse the elution for purity and HMWP formation
Column: Waters BEH Shield RP18 UPLC column (2.1×100 mm, 1.7 μm)
Buffer A: 0.09M di-ammonium hydrogen phosphate pH 3.0, 10% (v/v) acetonitrile
Buffer B: 90% acetonitrile.
Column: Waters Insulin HMWP SEC column
Buffer: 500 mM NaCl, 10 mM NaH2PO4, 5 mM H3PO4, 50% (v/v) 2-propanol

primary rat adipocytes = assay: Lipogenesis in rat adipocytes; type: cell-based; conditions: relative potency vs human insulin, unit %
Experimental: As a measure of in vitro potency of the insulins of the invention, lipogenesis can be used.
Primary rat adipocytes are isolated from the epididymale fat pads and incubated with 3H-glucose in buffer containing e.g. 0.1% fat free HSA and either standard (human insulin, HI) or insulin of the invention. The labelled glucose is converted into extractable lipids in a dose dependent way, resulting in full dose response curves.

[2] = molecular target: T1, human insulin receptor (IR-A) (Homo sapiens, UniProt P06213); assay: Insulin receptor affinity, SPA antibody capture assay, 0% HSA; type: binding; conditions: relative to affinity of human insulin
T1 sequence (P06213 28-746 isoform P06213-2 limits assumed): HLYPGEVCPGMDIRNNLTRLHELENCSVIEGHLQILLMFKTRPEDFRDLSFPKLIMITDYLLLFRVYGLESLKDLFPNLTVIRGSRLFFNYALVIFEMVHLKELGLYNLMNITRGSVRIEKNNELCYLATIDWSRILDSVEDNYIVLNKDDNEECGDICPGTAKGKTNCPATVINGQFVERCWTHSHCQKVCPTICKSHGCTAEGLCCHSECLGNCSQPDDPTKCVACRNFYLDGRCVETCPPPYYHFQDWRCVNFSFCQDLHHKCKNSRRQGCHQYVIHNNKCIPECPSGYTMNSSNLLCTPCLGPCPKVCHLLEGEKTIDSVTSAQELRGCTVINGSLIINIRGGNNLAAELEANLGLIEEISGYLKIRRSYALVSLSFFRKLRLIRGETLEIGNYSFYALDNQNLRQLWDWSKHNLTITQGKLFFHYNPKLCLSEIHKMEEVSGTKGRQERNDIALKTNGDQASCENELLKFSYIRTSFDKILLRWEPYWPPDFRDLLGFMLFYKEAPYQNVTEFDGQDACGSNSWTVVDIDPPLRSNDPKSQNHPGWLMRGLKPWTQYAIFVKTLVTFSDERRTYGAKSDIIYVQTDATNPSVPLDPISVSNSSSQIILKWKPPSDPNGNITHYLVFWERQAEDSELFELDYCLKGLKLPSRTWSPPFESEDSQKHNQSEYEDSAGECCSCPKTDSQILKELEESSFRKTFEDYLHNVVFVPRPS
T1 sequence (P06213 763-1382 partner limits assumed): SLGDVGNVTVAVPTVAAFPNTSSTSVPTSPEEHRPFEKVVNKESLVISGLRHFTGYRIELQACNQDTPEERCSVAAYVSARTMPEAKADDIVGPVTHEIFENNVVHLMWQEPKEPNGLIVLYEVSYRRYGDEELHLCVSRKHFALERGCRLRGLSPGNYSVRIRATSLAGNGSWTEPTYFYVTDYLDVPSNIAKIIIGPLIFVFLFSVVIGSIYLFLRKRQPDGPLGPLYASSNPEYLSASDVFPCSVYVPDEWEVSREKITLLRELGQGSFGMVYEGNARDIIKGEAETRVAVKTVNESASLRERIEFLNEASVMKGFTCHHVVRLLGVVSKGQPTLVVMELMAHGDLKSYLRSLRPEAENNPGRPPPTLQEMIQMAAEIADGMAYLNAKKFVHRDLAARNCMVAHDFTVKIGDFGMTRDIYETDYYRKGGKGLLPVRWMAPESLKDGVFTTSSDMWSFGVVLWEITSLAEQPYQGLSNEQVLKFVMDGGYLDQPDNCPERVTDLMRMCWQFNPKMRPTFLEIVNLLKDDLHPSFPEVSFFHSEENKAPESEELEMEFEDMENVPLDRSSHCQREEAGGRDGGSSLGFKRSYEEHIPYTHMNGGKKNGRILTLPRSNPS
Experimental: (§1) The affinity of the acylated insulin analogues of this invention for the human insulin receptor is determined by a SPA assay (Scintillation Proximity Assay) microtiterplate antibody capture assay. SPA-PVT antibody-binding beads, anti-mouse reagent (Amersham Biosciences, Cat No. PRNQ0017) are mixed with 25 ml of binding buffer (100 mM HEPES pH 7.8; 100 mM sodium chloride, 10 mM MgSO4, 0.025% Tween-20). Reagent mix for a single Packard Optiplate (Packard No. 6005190) is composed of 2.4 μl of a 1:5000 diluted purified recombinant human insulin receptor (either with or without exon 11), an amount of a stock solution of A14Tyr[^125I]-human insulin corresponding to 5000 cpm per 100 μl of reagent mix, 12 μl of a 1:1000 dilution of F12 antibody, 3 ml of SPA-beads and binding buffer to a total of 12 ml. A total of 100 μl reagent mix is then added to each well in the Packard Optiplate and a dilution series of the insulin derivative is made in the Optiplate from appropriate samples. The samples are then incubated for 16 hours while gently shaken. The phases are the then separated by centrifugation for 1 min and the plates counted in a Topcounter. The binding data were fitted using the nonlinear regression algorithm in the GraphPad Prism 2.01 (GraphPad Software, San Diego, Calif.) and affinities are expressed relative (in percentage (%)) to the affinity of human insulin.

[3] = molecular target: T1, human insulin receptor (IR-A); conditions: relative to affinity of human insulin; […] HSA in binding buffer
Experimental: as §1
A related assay is also used wherein the binding buffer also contains 1.5% HSA in order to mimic physiological conditions

duodenum lumen enzymes = assay: Degradation of insulin analogs using duodenum lumen enzymes; conditions: degradation half time divided by that of reference insulin; rat duodenum enzymes, pH 7.4, 37° C.
Experimental: Degradation of insulin analogs using duodenum lumen enzymes (prepared by filtration of duodenum lumen content) from SPD rats. The assay is performed by a robot in a 96 well plate (2 ml) with 16 wells available for insulin analogs and standards. Insulin analogs ˜15 μM are incubated with duodenum enzymes in 100 mM Hepes, pH=7.4 at 37° C., samples are taken after 1, 15, 30, 60, 120 and 240 min and reaction quenched by addition of TFA. Intact insulin analogs at each point are determined by RP-HPLC. Degradation half time is determined by exponential fitting of the data and normalized to half time determined for the reference insulins, A14E, B25H, desB30 human insulin or human insulin in each assay. The amount of enzymes added for the degradation is such that the half time for degradation of the reference insulin is between 60 min and 180 min.

[4] = Hydrophobicity by isocratic reverse phase HPLC (k'rel); type: physicochemical; conditions: human insulin = 1, RP-HPLC pH 7.3
Experimental: The elution time of the insulin derivative is compared to that of human insulin (herein designated HI) or another derivative with a known hydrophibicity under the same conditions. The hydrophobicity, k′rel, is calculated as: k′relderiv=((tderiv−t0)/(tref−t0))*k′relref. Using HI as reference: k′relref=k′relHI=1. The void time of the HPLC system, t0, is determined by injecting 5 μl of 0.1 mM NaNO3. Running conditions:
Column: Lichrosorb RP-C18, 5 μm, 4×250 mm
Buffer A: 0.1 M natrium phosphate pH 7.3, 10 vol % CH3CN
After running an initial gradient, the isocratic level for running the derivative and reference (for example HI) is chosen, and the elution times of the derivative and reference under isocratic conditions are used in the above equation to calculate k′relderiv.

I: NMe2Phe-VNQHLCGSHLVEALYLVCGERGFHYTPK([AEEA-AEEA-γGlu-C18 diacid]) / II: Me2Gly-IVEQCCTSICSLEQLENYCN (disulfide I:6-II:6, I:18-II:19, II:5-II:10) [Example 1, A1(N^α, N^α-Dimethyl), A14E, B1(N^α, N^α-dimethyl), B25H, B29K(N^εoctadecanedioyl-gGlu-2xOEG), desB30 human insulin]
HMWP formed (%) 4 weeks [1]: 0.4%
Impurities formed (%) 4 weeks [1]: 9.8%
Lipogenesis in rat adipocytres (@ 0.1% HSA) rel. to human insulin (primary rat adipocytes): 0.10%
Relative IR-A affinity (@ 0% HSA) (%) [2]: 1.5%
Relative IR-A affinity (@ […] HSA) (%)e [3]: 0.09%
Duodenum degradation. Relative stability vs. A14E, B25H, desB30 human insulin (duodenum lumen enzymes): 1.2
Hydrophobicity rel. to human insulin [4]: 0.38

I: {Phe(Nα-CONH2)}-VNQHLCGSHLVEALYLVCGERGFHYTPK([AEEA-AEEA-γGlu-C18 diacid]) / II: Hydantoyl-IVEQCCTSICSLEQLENYCN (disulfide I:6-II:6, I:18-II:19, II:5-II:10) [Example 12, A1(N^αCarbamoyl), A14E, B1(N^αCarbamoyl), B25H, B29K(N^εoctadecanedioyl-gGlu-2xOEG), desB30 human insulin]
HMWP formed (%) 4 weeks [1]: 0.2%
Impurities formed (%) 4 weeks [1]: 4.4%
Lipogenesis in rat adipocytres (@ 0.1% HSA) rel. to human insulin (primary rat adipocytes): 0.02%
Relative IR-A affinity (@ 0% HSA) (%) [2]: 0.3%
Relative IR-A affinity (@ […] HSA) (%)e [3]: 0.06%
Duodenum degradation. Relative stability vs. A14E, B25H, desB30 human insulin (duodenum lumen enzymes): 1.5
Hydrophobicity rel. to human insulin [4]: 0.15

A1G(N^α, N^α-Dimethyl), A14E, B1F(N(alpha), N(N^α, N^α-dimethyl), B25H, desB27, B29K(N^εhexadecanedioyl-gGlu-2xOEG), desB30 human insulin [Example 9]
Lipogenesis in rat adipocytres (@ 0.1% HSA) rel. to human insulin (primary rat adipocytes): 1.34%
Relative IR-A affinity (@ 0% HSA) (%) [2]: 2.5%
Relative IR-A affinity (@ […] HSA) (%)e [3]: 0.33%
Duodenum degradation. Relative stability vs. A14E, B25H, desB30 human insulin (duodenum lumen enzymes): 9.2
Hydrophobicity rel. to human insulin [4]: 0.10
